The test has as its target T1, GST-MTR4∆N R743E (human, UniProt P42285 75-1042, R743E).
T1 construct: also called R743E mutant; source: E. coli BL21 star (DE3), purified (Ni-NTA, heparin, SEC); not shown: 6xHis-GST, N-terminal, kept
T1 sequence (looked up): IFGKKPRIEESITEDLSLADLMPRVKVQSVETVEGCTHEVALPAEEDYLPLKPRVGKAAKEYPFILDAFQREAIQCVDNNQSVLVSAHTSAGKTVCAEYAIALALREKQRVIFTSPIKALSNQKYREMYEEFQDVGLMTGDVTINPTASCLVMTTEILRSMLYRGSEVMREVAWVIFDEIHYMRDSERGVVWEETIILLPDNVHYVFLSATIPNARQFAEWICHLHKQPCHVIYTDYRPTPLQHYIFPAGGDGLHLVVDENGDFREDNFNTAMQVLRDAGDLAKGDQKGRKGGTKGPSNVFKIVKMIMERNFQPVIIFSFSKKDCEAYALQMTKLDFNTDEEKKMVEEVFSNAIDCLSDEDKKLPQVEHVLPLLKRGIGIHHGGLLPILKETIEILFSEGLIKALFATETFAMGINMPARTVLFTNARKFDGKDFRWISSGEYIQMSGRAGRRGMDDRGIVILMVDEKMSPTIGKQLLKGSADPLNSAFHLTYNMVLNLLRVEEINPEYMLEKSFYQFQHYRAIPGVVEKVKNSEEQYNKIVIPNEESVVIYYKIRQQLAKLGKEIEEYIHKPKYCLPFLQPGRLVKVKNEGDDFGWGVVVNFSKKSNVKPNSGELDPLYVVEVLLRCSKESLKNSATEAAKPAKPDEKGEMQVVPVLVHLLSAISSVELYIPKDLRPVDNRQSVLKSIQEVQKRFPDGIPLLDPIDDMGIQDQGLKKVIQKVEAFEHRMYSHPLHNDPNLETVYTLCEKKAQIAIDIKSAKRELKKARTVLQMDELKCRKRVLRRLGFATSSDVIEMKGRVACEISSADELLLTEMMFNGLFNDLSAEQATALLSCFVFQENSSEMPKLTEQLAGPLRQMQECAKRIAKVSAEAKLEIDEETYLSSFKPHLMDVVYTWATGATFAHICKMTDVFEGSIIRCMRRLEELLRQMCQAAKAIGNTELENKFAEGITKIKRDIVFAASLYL
Description: pull-down; GST-tagged MTR4 constructs as bait, Trx-NVL constructs as prey, glutathione sepharose; 10 μM GST-MTR4∆N with 20 μM Trx-NVL constructs; 50 mM Hepes pH 7.5, 150 mM NaCl, 5% glycerol, 0.05% NP40, 1 mM DTT, 30 min at 4 °C; SDS-PAGE, Coomassie. As to conditions: both partners purified.

B1: Trx-NVL^167–216 (domain or fragment, human, UniProt O15381 167-216, looked up)
chain: KDSEGGWFIDKTPSVKKDSFFLDLSCEKSNPKKPITEIQDSKDSSLLESD
notes: source: E. coli BL21 star (DE3), purified (Ni-NTA, SEC); not shown: 6xHis-Trx, N-terminal, kept
In the case of B1, the binding result is reported as “binds”.

The record behind these values is article PMC6662825, “The MTR4 helicase recruits nuclear adaptors of the human RNA exosome using distinct arch-interacting motifs” (Nature Communications, 2019).
